According to patent US20250195679A1, “ANTIBODY-DRUG CONJUGATE AND USE THEREOF” (SHANGHAI HUAOTA BIOPHARMACEUTICAL CO., LTD., priority 2022, published 2025):

T1: Human CD73 (Homo sapiens, UniProt P21589)
T1 sequence (P21589 27-547 limits assumed): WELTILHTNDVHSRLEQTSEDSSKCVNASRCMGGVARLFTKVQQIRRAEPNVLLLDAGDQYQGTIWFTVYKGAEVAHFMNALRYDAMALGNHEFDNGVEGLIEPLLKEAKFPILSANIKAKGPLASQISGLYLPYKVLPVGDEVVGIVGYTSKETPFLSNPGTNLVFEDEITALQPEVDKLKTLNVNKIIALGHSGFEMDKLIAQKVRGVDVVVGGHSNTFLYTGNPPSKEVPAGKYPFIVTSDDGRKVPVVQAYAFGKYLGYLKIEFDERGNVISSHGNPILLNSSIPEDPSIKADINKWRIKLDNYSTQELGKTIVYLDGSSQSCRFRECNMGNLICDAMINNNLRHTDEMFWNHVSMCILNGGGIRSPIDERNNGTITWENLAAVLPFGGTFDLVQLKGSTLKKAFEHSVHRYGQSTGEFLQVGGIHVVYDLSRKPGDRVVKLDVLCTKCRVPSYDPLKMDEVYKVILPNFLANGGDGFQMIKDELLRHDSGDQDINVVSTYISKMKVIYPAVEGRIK


Columns and labels:
Human CD73 [1] = target: T1, Human CD73; assay: Biacore binding kinetics with human CD73 protein; design: purchased ACRO Biosystems CD3-H52H7; conditions: Human CD73, Biacore T200, protein A chip, 25° C., 1:1 binding model
Experimental: The binding kinetics of the antibody-drug conjugate 1 and the antibody-drug conjugate 2 prepared in Example 1 and the 900698 naked antibody with a human CD73 protein (manufacturer: ACRO Biosystems, Cat. No. CD3-H52H7) and a monkey CD73 protein (manufacturer: Novoprotein, Cat. No. CI21) were assayed using Biacore (GE, model: T200), with an assay buffer of HBS-EP+ (pH 7.4) and a protein A chip (manufacturer: GE, Cat. No. 29-1275-56).
The temperature for the sample compartment and the flow path was set to 25° C. The protein A chip captured each antigen-binding protein as a ligand, fixing about 100 RU. The human CD73 protein was diluted with the assay buffer to a series of concentrations of 50 nM, 25 nM, 12.5 nM, 6.25 nM, 3.12 nM, and 1.57 nM, serving as analytes, and the assay buffer was used as a 0 concentration control. At a flow rate of 30 μL/min, association was conducted for 120 s, and dissociation was conducted for 600 s. Glycine (10 mM, pH 1.5) was used for regeneration at a flow rate of 50 μL/min for 60 s in a multi-cycle kinetic assay. A 1:1 binding model was used, and the Fit Local mode was selected to determine the association rate constant (ka), dissociation rate constant (kd), and equilibrium dissociation constant (KD).

Human CD73 [2] = target: T1, Human CD73; assay: Inhibition of enzymatic activity of soluble recombinant CD73 protein (AMP/ATP, CellTiter-Glo); type: biochemical; design: purchased ACRO CD3-H52H7-100 μg; conditions: FIG. 3; the three samples compared with each other
Experimental: The inhibitory effects of the antibody-drug conjugate 1 and the antibody-drug conjugate 2 prepared in Example 1 and the 900698 naked antibody on the enzymatic activity of a recombinant CD73 protein (ACRO, #CD3-H52H7-100 μg) were assayed. The specific procedures were as follows: The series of CD73 antigen-binding proteins were diluted to 120 μg/mL with TM Buffer (ROCKLAND, #MB-059), followed by a 3-fold dilution across 10 gradients. The diluted proteins were each added at 25 µL/well to a 96-well plate. The recombinant CD73 protein was then diluted to 0.3 μg/mL with TM Buffer (ROCKLAND, #MB-059) and added at 25 μL/well to the 96-well plate. The mixture was mixed uniformly. Then, diluted AMP and ATP were mixed at a ratio of 1:1, and the mixture was added at 50 μL/well to the above 96-well plate. The resulting mixture was allowed to react for 15 min. Finally, a CellTiter-Glo® substrate was added to a CellTiter-Glo® buffer. The mixture was mixed uniformly and equilibrated to room temperature, and then added at 100 μL/well to the wells to be tested. The resulting mixture was allowed to react at room temperature for 10 min and then subjected to full-wavelength detection.
The results for the inhibition of the enzymatic activity of the soluble recombinant CD73 antigen protein (ACRO, #CD3-H52H7-100 μg) by the antibody-drug conjugate 1, the antibody-drug conjugate 2, and the 900698 naked antibody are shown in FIG. 3 (represented as 1-3 in FIG. 3, respectively).

Molecule | ka (Human CD73 [1]) | kd (Human CD73 [1]) | inhibitory effect on the enzymatic activity of the soluble recombinant CD73 protein (Human CD73 [2])
Antibody-drug conjugate 1: 900698 antibody cysteine-conjugated to SN-38 via Mc-VC-PAB-DMEDA-PEG linker, DAR about 7.8 (conjugate) VH: QVQLVESGGGLVKPGGSLRLSCAASGFTFSKYAMSWIRQAPGKGLEWVAEISSGGGYINYADSVKGRFTISRDNAKNSLYLQMNSLRAEDTAVYYCARAIYYYGSSYNYYAMDYWGQGTTVTVSS VL: DIQMTQSPSSLSASVGDRVTITCRASQDVGTAEAWYQQKPGKAPKLLIYWASTRHTGVPSRFSGSGSGTDFTLTISSLQPEDFATYYCQQYSSYPLTFGQGTKLEIK | 381000 M⁻¹ s⁻¹ | 0.000129 s⁻¹ | comparable inhibitory effects
Antibody-drug conjugate 2: 900698 antibody cysteine-conjugated to SN-38 via MP2-VC-PAB-DMEDA-PEG linker, DAR about 7.8 (conjugate) VH: QVQLVESGGGLVKPGGSLRLSCAASGFTFSKYAMSWIRQAPGKGLEWVAEISSGGGYINYADSVKGRFTISRDNAKNSLYLQMNSLRAEDTAVYYCARAIYYYGSSYNYYAMDYWGQGTTVTVSS VL: DIQMTQSPSSLSASVGDRVTITCRASQDVGTAEAWYQQKPGKAPKLLIYWASTRHTGVPSRFSGSGSGTDFTLTISSLQPEDFATYYCQQYSSYPLTFGQGTKLEIK | 643000 M⁻¹ s⁻¹ | 0.000228 s⁻¹ | comparable inhibitory effects
900698: anti-CD73 antibody, VH SEQ ID NO: 35, VL SEQ ID NO: 34 (antibody, V domains shown, 900696, 900698 (VH); 900695, 900698 (VL)) VH: QVQLVESGGGLVKPGGSLRLSCAASGFTFSKYAMSWIRQAPGKGLEWVAEISSGGGYINYADSVKGRFTISRDNAKNSLYLQMNSLRAEDTAVYYCARAIYYYGSSYNYYAMDYWGQGTTVTVSS VL: DIQMTQSPSSLSASVGDRVTITCRASQDVGTAEAWYQQKPGKAPKLLIYWASTRHTGVPSRFSGSGSGTDFTLTISSLQPEDFATYYCQQYSSYPLTFGQGTKLEIK | 147000 M⁻¹ s⁻¹ | 0.000104 s⁻¹ | comparable inhibitory effects
